# IntAct's records for PubMed 18191225
# B1: Caveolin-3 (Mus musculus), P51637 (parent)
# chain: MMTEEHTDLEARIIKDIHCKEIDLVNRDPKNINEDIVKVDFEDVIAEPEGTYSFDGVWKVSFTTFTVSKYWCYRLLSTLLGVPLALLWGFLFACISFCHIWAVVPCIKSYLIEIQCISHIYSLCIRTFCNPLFAALGQVCSNIKVVLRREG
# partner: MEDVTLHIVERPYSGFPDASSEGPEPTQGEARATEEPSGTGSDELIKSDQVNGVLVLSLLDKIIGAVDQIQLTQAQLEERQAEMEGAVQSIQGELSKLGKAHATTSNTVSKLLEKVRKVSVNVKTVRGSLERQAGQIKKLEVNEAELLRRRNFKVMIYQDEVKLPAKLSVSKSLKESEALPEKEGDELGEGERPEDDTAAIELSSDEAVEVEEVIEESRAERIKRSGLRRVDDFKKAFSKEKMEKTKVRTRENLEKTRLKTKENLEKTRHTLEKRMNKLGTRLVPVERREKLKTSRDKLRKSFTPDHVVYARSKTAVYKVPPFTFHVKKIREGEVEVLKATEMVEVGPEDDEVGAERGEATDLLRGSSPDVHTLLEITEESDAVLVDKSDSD
# Variants of: B1
# Settings: with cavn1_mouse Cavin1, O54724
row,effect of a mutation on the interaction,Variant
1,decreasing interaction,MMTEEHTDLEARIIKDIHCKEIDLVNRDPKNINEDIVKVDFEDVIAEPEGTYSFDGVWKVSFTTFTVSKYWCYRLLSTLLGVPLALLWGFLFACISFCHIWAVVLCIKSYLIEIQCISHIYSLCIRTFCNPLFAALGQVCSNIKVVLRREG
